# In PMC2568912 (The Journal of Biological Chemistry, 2008):
# Biological target: the molecule itself
# Assay: non-reducing SDS-PAGE with immunoblot
protein,measurement,value
"N-terminal HA-tagged PKD2 mutant L703X (domain or fragment, human, UniProt Q13563 1-702, looked up) MVNSSRVQPQQPGDAKRPPAPRAPDPGRLMAGCAAVGASLAAPGGLCEQRGLEIEMQRIRQAAARDPPAGAAASPSPPLSSCSRQAWSRDNPGFEAEEEEEEVEGEEGGMVVEMDVEWRPGSRRSAASSAVSSVGARSRGLGGYHGAGHPSGRRRRREDQGPPCPSPVGGGDPLHRHLPLEGQPPRVAWAERLVRGLRGLWGTRLMEESSTNREKYLKSVLRELVTYLLFLIVLCILTYGMMSSNVYYYTRMMSQLFLDTPVSKTEKTNFKTLSSMEDFWKFTEGSLLDGLYWKMQPSNQTEADNRSFIFYENLLLGVPRIRQLRVRNGSCSIPQDLRDEIKECYDVYSVSSEDRAPFGPRNGTAWIYTSEKDLNGSSHWGIIATYSGAGYYLDLSRTREETAAQVASLKKNVWLDRGTRATFIDFSVYNANINLFCVVRLLVEFPATGGVIPSWQFQPLKLIRYVTTFDFFLAACEIIFCFFIFYYVVEEILEIRIHKLHYFRSFWNCLDVVIVVLSVVAIGINIYRTSNVEVLLQFLEDQNTFPNFEHLAYWQIQFNNIAAVTVFFVWIKLFKFINFNRTMSQLSTTMSRCAKDLFGFAIMFFIIFLAYAQLAYLVFGTQVDDFSTFQECIFTQFRIILGDINFAEIEEANRVLGPIYFTTFVFFMFFILLNMFLAIINDTYSEVKSDLAQQKAEMELSD",stoichiometry N,2
